Data from doi:10.1101/2021.07.30.454553 (bioRxiv, 2021).

Biological target: T1, full-length human kinesin-1 heavy chain (KIF5B) (human, UniProt P33176 1-963, LD555, LD655 or Alexa488 label (imaging assays))
T1 sequence (looked up): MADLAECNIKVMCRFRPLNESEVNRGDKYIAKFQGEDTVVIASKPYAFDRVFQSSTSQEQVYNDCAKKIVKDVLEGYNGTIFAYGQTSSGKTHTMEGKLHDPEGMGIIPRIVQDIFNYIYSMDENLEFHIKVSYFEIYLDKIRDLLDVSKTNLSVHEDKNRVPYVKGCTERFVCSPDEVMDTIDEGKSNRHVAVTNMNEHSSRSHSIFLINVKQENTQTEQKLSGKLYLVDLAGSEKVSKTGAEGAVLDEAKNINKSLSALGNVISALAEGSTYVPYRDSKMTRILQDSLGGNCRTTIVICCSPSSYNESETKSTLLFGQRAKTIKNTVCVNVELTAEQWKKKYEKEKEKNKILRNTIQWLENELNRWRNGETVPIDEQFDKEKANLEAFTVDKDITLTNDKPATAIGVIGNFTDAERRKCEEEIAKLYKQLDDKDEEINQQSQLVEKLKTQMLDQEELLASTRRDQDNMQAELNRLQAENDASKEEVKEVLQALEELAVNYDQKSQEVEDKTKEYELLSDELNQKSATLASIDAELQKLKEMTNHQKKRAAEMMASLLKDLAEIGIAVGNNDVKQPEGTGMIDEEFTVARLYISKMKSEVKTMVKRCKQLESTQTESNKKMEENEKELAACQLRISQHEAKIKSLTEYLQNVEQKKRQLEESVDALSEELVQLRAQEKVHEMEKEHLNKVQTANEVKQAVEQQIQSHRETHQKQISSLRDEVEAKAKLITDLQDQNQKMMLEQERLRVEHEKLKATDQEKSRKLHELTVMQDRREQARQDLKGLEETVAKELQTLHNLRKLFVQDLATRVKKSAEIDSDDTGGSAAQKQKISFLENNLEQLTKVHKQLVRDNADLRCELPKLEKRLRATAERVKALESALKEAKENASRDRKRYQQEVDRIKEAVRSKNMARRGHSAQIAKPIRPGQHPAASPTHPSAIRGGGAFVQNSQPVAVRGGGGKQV
Assay: single-molecule colocalisation on microtubules

binding result: binds
B1: TRAK1^1-532 (domain or fragment, human, UniProt Q9UPV9 1-532, looked up)
chain: MALVFQFGQPVRAQPLPGLCHGKLIRTNACDVCNSTDLPEVEIISLLEEQLPHYKLRADTIYGYDHDDWLHTPLISPDANIDLTTEQIEETLKYFLLCAERVGQMTKTYNDIDAVTRLLEEKERDLELAARIGQSLLKKNKTLTERNELLEEQVEHIREEVSQLRHELSMKDELLQFYTSAAEESEPESVCSTPLKRNESSSSVQNYFHLDSLQKKLKDLEEENVVLRSEASQLKTETITYEEKEQQLVNDCVKELRDANVQIASISEELAKKTEDAARQQEEITHLLSQIVDLQKKAKACAVENEELVQHLGAAKDAQRQLTAELRELEDKYAECMEMLHEAQEELKNLRNKTMPNTTSRRYHSLGLFPMDSLAAEIEGTMRKELQLEEAESPDITHQKRVFETVRNINQVVKQRSLTPSPMNIPGSNQSSAMNSLLSSCVSTPRSSFYGSDIGNVVLDNKTNSIILETEAADLGNDERSKKPGTPGTPGSHDLETALRRLSLRRENYLSERRFFEEEQERKLQELAEKGE
modifications: LD555 dye on the SNAP tag (imaging assays)
